According to publication PMC11342335:

Experiments:
Assay in all cases: SPR; Biacore 8K, affinity determination of second-generation constructs; 30-100 RU of ABD035-containing constructs captured on immobilised HSA (CM5); 1-200 nM human sortilin injected 180 s at 30 µl/min, 25°C, PBST; 60 min dissociation; 1:1 Langmuir fit; apparent constants; n=3 technical replicates
[1] = target: ABD-A3-(G4S)3-PGRNC3 (His6-ABD035-G4S-A3-(G4S)3-PGRNC3) (human)
[2] = target: ABD-A3-(G4S)3-NTC3 (His6-ABD035-G4S-A3-(G4S)3-NTC3)
[3] = target: ABD-A3-(G4S)3-PGRNC6* (His6-ABD035-G4S-A3-(G4S)3-PGRNC6*) (human) (UniProt P28799)
[4] = target: A3-ABD (His6-A3-G4S-ABD035)

human sortilin (R&D Systems, 3154-ST), sequence (Q99523 78-755): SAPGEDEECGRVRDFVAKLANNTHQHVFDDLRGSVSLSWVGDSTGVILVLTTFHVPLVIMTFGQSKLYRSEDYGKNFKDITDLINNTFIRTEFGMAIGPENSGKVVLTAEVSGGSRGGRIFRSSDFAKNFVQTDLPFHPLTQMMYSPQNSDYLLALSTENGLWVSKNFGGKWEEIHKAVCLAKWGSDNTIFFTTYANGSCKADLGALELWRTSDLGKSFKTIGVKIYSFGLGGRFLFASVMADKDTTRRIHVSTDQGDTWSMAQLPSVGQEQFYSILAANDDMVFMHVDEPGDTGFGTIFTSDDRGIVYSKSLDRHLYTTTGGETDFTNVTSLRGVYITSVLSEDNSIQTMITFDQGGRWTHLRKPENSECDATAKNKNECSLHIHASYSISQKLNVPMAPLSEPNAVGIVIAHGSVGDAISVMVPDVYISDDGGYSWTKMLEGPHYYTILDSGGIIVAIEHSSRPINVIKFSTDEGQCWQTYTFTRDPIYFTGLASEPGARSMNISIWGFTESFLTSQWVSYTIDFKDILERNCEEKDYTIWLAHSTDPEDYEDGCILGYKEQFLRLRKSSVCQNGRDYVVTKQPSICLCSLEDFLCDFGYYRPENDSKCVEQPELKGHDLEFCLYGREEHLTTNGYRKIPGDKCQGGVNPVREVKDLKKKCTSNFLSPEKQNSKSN

- Kd [1]: 0.31 nM
- Kd [2]: 0.303 nM
- Kd [3]: 0.319 nM
- Kd [4]: 70.4 nM
Substance: human sortilin (R&D Systems, 3154-ST) (from UniProt Q99523 78-755) (receptor)
